# Publication PMC6175577, “BRCT domains of the DNA damage checkpoint proteins TOPBP1/Rad4 display distinct specificities for phosphopeptide ligands” (eLife, 2018)
# Assays:
# [1] = biological target: RHNO1 pT202 fluorescein-labelled phosphopeptide (human); assay: fluorescence polarisation; fluorescein-labelled peptide at 200 nM, increasing concentrations of recombinant protein; room temperature; 25 mM HEPES pH 7.5, 150 mM NaCl, 1 mM EDTA, 0.25 mM TCEP, 0.02% Tween-20; one site-specific binding model
# [2] = biological target: RAD9 pS387 (Homo sapiens) (UniProt Q99638); settings: cited from earlier work
# Sequence of RAD9 pS387 (Homo sapiens) (Q99638 whole entry): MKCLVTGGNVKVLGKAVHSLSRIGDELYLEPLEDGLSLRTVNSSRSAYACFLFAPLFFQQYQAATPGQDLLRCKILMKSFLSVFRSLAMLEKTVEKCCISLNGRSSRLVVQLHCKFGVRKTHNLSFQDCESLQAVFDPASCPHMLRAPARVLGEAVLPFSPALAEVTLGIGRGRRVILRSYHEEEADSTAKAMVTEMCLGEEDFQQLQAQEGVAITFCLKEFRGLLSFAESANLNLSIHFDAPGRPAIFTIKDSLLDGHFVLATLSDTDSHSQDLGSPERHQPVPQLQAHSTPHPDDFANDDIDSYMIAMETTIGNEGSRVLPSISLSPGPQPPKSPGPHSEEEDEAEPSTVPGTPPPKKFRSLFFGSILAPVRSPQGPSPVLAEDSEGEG
# TOPBP1 BRCT0,1,2 = TOPBP1 BRCT0,1,2 (UniProt Q92547); assay: fluorescence polarisation titration; settings: reference: pT202 peptide, untreated; sites T202
# Sequence of TOPBP1 BRCT1 (Q92547 98-192): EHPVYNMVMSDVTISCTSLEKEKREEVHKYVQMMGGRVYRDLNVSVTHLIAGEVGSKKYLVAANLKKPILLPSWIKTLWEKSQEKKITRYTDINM
substance,measurement,setting,value
"TOPBP1-BRCT0,1,2 segment, wild type (recombinant, fluorescence polarisation) (domain or fragment)",fold tighter binding than RAD9-pS387,[1],10 fold
TOPBP1 BRCT1 (from UniProt Q92547),Kd,[2],2100 nM
RHNO1 (from UniProt Q9BSD3) λ-phosphatase-dephosphorylated peptide,binding against the reference,"TOPBP1 BRCT0,1,2",lost
